From patent US7105156 (University of California, dated 2006)

Biological target: T1, p56^RB protein (amino-truncated 56 kDa RB protein, C-terminal half of the RB protein) (Homo sapiens (Human), UniProt P06400 379-928)
T1 sequence: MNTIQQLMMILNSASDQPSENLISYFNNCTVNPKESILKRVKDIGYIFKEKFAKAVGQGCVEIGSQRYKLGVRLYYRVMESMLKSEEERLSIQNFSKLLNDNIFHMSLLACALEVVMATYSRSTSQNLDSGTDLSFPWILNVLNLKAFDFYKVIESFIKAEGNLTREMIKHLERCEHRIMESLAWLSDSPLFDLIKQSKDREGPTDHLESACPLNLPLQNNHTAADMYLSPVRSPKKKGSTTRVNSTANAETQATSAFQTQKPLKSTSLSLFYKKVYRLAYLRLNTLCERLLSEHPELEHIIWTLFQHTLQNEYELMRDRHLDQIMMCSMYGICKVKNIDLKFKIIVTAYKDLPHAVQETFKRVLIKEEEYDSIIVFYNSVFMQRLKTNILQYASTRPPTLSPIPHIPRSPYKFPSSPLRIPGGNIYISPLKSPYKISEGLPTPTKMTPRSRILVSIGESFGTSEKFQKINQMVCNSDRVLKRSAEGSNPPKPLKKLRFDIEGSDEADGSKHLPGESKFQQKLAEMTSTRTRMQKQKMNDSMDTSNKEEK
Assay: cell-based or functional assay

ENLFCSEEMPSSDDEATA [T peptide (SV40 T-antigen peptide, amino acids 101-118)]
percent of injected cells incorporating BrdU (Saos-2 cells, 5 mM T peptide, 500 to 1000-fold molar excess over p56^RB): ~70%
